# According to US7696168 (TUFTS MEDICAL CENTER, dated 2010):
# The star is where a group is joined. Palmitoyl = CCCCCCCCCCCCCCCC(=O)*
# T1: murine PAR4 (mouse, UniProt O88634 60-396)
# T1 sequence (looked up): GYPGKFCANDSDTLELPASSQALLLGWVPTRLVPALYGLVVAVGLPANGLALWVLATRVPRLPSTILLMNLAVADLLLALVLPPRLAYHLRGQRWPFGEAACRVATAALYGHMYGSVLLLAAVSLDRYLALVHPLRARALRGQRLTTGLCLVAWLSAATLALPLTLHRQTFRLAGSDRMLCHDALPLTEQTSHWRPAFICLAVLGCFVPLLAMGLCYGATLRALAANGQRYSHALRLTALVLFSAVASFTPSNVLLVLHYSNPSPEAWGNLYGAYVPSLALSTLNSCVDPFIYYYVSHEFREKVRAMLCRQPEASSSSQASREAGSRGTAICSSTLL
# T2: PAR1 S309P mutant (human, UniProt P25116 42-425)
# T2 sequence (looked up): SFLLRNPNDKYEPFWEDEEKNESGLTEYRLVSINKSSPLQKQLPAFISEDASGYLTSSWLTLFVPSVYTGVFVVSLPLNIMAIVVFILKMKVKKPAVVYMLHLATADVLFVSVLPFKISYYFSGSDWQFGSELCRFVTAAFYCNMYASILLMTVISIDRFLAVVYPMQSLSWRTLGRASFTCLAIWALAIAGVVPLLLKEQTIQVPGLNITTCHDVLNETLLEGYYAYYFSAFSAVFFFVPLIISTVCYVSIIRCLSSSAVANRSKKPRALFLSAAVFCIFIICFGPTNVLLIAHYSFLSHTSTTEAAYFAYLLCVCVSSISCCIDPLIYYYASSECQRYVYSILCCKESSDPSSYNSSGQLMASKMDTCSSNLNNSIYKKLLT
# T3: human PAR1 (human, UniProt P25116 42-425)
# T3 sequence (looked up): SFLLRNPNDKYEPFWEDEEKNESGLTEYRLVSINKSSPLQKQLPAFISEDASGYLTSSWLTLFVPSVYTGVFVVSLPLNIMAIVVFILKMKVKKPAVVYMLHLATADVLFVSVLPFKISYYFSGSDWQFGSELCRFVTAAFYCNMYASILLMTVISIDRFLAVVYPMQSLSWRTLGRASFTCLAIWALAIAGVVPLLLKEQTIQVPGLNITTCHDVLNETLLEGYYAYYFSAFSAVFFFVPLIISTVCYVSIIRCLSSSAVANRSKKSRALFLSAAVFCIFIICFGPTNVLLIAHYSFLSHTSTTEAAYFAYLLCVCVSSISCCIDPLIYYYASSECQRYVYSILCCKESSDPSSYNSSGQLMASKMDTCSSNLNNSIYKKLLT
# T4: human cholecystokinin A receptor (CCKA) (human, UniProt P32238 1-428)
# T4 sequence (looked up): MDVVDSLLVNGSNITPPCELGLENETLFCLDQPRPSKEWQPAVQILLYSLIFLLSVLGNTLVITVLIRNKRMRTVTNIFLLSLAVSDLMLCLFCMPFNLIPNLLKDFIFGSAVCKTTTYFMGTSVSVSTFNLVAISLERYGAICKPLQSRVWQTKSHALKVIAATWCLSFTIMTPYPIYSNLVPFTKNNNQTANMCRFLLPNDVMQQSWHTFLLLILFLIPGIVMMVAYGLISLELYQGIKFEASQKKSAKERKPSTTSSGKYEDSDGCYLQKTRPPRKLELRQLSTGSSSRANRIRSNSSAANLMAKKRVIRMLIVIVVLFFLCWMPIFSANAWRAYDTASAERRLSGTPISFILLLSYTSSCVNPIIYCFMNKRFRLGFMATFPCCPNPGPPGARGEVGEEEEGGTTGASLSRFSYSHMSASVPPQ
# T5: human cholecystokinin B receptor (CCKB) (human, UniProt P32239 1-447)
# T5 sequence (looked up): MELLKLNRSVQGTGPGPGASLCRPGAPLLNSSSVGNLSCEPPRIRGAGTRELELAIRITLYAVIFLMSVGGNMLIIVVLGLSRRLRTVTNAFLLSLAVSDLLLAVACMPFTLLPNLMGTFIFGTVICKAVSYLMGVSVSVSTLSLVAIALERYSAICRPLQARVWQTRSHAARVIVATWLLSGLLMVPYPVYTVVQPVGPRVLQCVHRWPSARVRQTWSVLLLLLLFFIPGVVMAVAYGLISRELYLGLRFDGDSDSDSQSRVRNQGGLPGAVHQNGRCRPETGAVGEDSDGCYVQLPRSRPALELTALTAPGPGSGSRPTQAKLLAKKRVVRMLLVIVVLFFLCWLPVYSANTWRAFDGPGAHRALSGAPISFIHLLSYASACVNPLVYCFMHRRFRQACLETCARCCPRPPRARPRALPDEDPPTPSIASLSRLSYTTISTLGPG
# B1: MC4pal-14 (Pal-TGAIRQGANMKGAI) (peptide)
# peptide: Palmitoyl-TGAIRQGANMKGAI-NH2
# SMILES: CCCCCCCCCCCCCCCC(=O)N[C@H](C(=O)NCC(=O)N[C@@H](C)C(=O)N[C@H](C(=O)N[C@@H](CCCNC(=N)N)C(=O)N[C@@H](CCC(N)=O)C(=O)NCC(=O)N[C@@H](C)C(=O)N[C@@H](CC(N)=O)C(=O)N[C@@H](CCSC)C(=O)N[C@@H](CCCCN)C(=O)NCC(=O)N[C@@H](C)C(=O)N[C@H](C(N)=O)[C@@H](C)CC)[C@@H](C)CC)[C@@H](C)O
# B2: P1pal-19E (Pal-RCESSSAEANRSKKERELF) (peptide)
# peptide: Palmitoyl-RCESSSAEANRSKKERELF-NH2
# SMILES: CCCCCCCCCCCCCCCC(=O)N[C@@H](CCCNC(=N)N)C(=O)N[C@@H](CS)C(=O)N[C@@H](CCC(=O)O)C(=O)N[C@@H](CO)C(=O)N[C@@H](CO)C(=O)N[C@@H](CO)C(=O)N[C@@H](C)C(=O)N[C@@H](CCC(=O)O)C(=O)N[C@@H](C)C(=O)N[C@@H](CC(N)=O)C(=O)N[C@@H](CCCNC(=N)N)C(=O)N[C@@H](CO)C(=O)N[C@@H](CCCCN)C(=O)N[C@@H](CCCCN)C(=O)N[C@@H](CCC(=O)O)C(=O)N[C@@H](CCCNC(=N)N)C(=O)N[C@@H](CCC(=O)O)C(=O)N[C@@H](CC(C)C)C(=O)N[C@@H](Cc1ccccc1)C(N)=O
# B3: S2pal-23 (Pal-KVKSSGIRVGSSKRKKSEKKVTK) (peptide)
# peptide: Palmitoyl-KVKSSGIRVGSSKRKKSEKKVTK-NH2
# SMILES: CCCCCCCCCCCCCCCC(=O)N[C@@H](CCCCN)C(=O)N[C@H](C(=O)N[C@@H](CCCCN)C(=O)N[C@@H](CO)C(=O)N[C@@H](CO)C(=O)NCC(=O)N[C@H](C(=O)N[C@@H](CCCNC(=N)N)C(=O)N[C@H](C(=O)NCC(=O)N[C@@H](CO)C(=O)N[C@@H](CO)C(=O)N[C@@H](CCCCN)C(=O)N[C@@H](CCCNC(=N)N)C(=O)N[C@@H](CCCCN)C(=O)N[C@@H](CCCCN)C(=O)N[C@@H](CO)C(=O)N[C@@H](CCC(=O)O)C(=O)N[C@@H](CCCCN)C(=O)N[C@@H](CCCCN)C(=O)N[C@H](C(=O)N[C@H](C(=O)N[C@@H](CCCCN)C(N)=O)[C@@H](C)O)C(C)C)C(C)C)[C@@H](C)CC)C(C)C
# B4: S2pal-23F (Pal-KVRSSGIRVGSSKRKKSEKKVTF) (peptide)
# peptide: Palmitoyl-KVRSSGIRVGSSKRKKSEKKVTF-NH2
# SMILES: CCCCCCCCCCCCCCCC(=O)N[C@@H](CCCCN)C(=O)N[C@H](C(=O)N[C@@H](CCCNC(=N)N)C(=O)N[C@@H](CO)C(=O)N[C@@H](CO)C(=O)NCC(=O)N[C@H](C(=O)N[C@@H](CCCNC(=N)N)C(=O)N[C@H](C(=O)NCC(=O)N[C@@H](CO)C(=O)N[C@@H](CO)C(=O)N[C@@H](CCCCN)C(=O)N[C@@H](CCCNC(=N)N)C(=O)N[C@@H](CCCCN)C(=O)N[C@@H](CCCCN)C(=O)N[C@@H](CO)C(=O)N[C@@H](CCC(=O)O)C(=O)N[C@@H](CCCCN)C(=O)N[C@@H](CCCCN)C(=O)N[C@H](C(=O)N[C@H](C(=O)N[C@@H](Cc1ccccc1)C(N)=O)[C@@H](C)O)C(C)C)C(C)C)[C@@H](C)CC)C(C)C
# B5: Apal-19F (Pal-RIRSNSSAANLMAKKRVIEF) (peptide)
# peptide: Palmitoyl-RIRSNSSAANLMAKKRVIEF-NH2
# SMILES: CCCCCCCCCCCCCCCC(=O)N[C@@H](CCCNC(=N)N)C(=O)N[C@H](C(=O)N[C@@H](CCCNC(=N)N)C(=O)N[C@@H](CO)C(=O)N[C@@H](CC(N)=O)C(=O)N[C@@H](CO)C(=O)N[C@@H](CO)C(=O)N[C@@H](C)C(=O)N[C@@H](C)C(=O)N[C@@H](CC(N)=O)C(=O)N[C@@H](CC(C)C)C(=O)N[C@@H](CCSC)C(=O)N[C@@H](C)C(=O)N[C@@H](CCCCN)C(=O)N[C@@H](CCCCN)C(=O)N[C@@H](CCCNC(=N)N)C(=O)N[C@H](C(=O)N[C@H](C(=O)N[C@@H](CCC(=O)O)C(=O)N[C@@H](Cc1ccccc1)C(N)=O)[C@@H](C)CC)C(C)C)[C@@H](C)CC
# B6: Bpal-18 (Pal-SGSRPTQAKLLAKKRVVR) (peptide)
# peptide: Palmitoyl-SGSRPTQAKLLAKKRVVR-NH2
# SMILES: CCCCCCCCCCCCCCCC(=O)N[C@@H](CO)C(=O)NCC(=O)N[C@@H](CO)C(=O)N[C@@H](CCCNC(=N)N)C(=O)N1CCC[C@H]1C(=O)N[C@H](C(=O)N[C@@H](CCC(N)=O)C(=O)N[C@@H](C)C(=O)N[C@@H](CCCCN)C(=O)N[C@@H](CC(C)C)C(=O)N[C@@H](CC(C)C)C(=O)N[C@@H](C)C(=O)N[C@@H](CCCCN)C(=O)N[C@@H](CCCCN)C(=O)N[C@@H](CCCNC(=N)N)C(=O)N[C@H](C(=O)N[C@H](C(=O)N[C@@H](CCCNC(=N)N)C(N)=O)C(C)C)C(C)C)[C@@H](C)O
# B7: P1pal-13 (Pal-AVANRSKKSRALF) (peptide)
# peptide: Palmitoyl-AVANRSKKSRALF-NH2
# SMILES: CCCCCCCCCCCCCCCC(=O)N[C@@H](C)C(=O)N[C@H](C(=O)N[C@@H](C)C(=O)N[C@@H](CC(N)=O)C(=O)N[C@@H](CCCNC(=N)N)C(=O)N[C@@H](CO)C(=O)N[C@@H](CCCCN)C(=O)N[C@@H](CCCCN)C(=O)N[C@@H](CO)C(=O)N[C@@H](CCCNC(=N)N)C(=O)N[C@@H](C)C(=O)N[C@@H](CC(C)C)C(=O)N[C@@H](Cc1ccccc1)C(N)=O)C(C)C
# B8: P1pal-12 (Pal-RCLSSSAVANRS) (peptide)
# peptide: Palmitoyl-RCLSSSAVANRS-NH2
# SMILES: CCCCCCCCCCCCCCCC(=O)N[C@@H](CCCNC(=N)N)C(=O)N[C@@H](CS)C(=O)N[C@@H](CC(C)C)C(=O)N[C@@H](CO)C(=O)N[C@@H](CO)C(=O)N[C@@H](CO)C(=O)N[C@@H](C)C(=O)N[C@H](C(=O)N[C@@H](C)C(=O)N[C@@H](CC(N)=O)C(=O)N[C@@H](CCCNC(=N)N)C(=O)N[C@@H](CO)C(N)=O)C(C)C
# Tests used:
# Assay in all cases: cell-based or functional assay
# [1] = target: T1, murine PAR4
# [2] = target: T2, PAR1 S309P mutant
# [3] = target: MC4 receptor (MC4R) (human, UniProt P32245 1-332)
# [4] = target: T3, human PAR1
# [5] = target: rat somatostatin receptor (SSTR2) (rat, UniProt P30680 1-369)
# [6] = target: T4, human cholecystokinin A receptor (CCKA)
# [7] = target: T5, human cholecystokinin B receptor (CCKB)
# rat somatostatin receptor (SSTR2), sequence (P30680 whole entry): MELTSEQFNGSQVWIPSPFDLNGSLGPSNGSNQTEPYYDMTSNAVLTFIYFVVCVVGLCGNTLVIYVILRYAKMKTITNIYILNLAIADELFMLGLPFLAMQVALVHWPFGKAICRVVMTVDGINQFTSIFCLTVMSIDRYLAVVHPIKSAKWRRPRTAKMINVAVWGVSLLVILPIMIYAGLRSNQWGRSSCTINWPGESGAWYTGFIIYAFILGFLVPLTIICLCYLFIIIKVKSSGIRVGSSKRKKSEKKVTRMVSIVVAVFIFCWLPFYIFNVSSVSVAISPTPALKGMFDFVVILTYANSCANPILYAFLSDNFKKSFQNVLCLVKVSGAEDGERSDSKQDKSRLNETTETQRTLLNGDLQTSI
# MC4 receptor (MC4R), sequence (P32245 whole entry): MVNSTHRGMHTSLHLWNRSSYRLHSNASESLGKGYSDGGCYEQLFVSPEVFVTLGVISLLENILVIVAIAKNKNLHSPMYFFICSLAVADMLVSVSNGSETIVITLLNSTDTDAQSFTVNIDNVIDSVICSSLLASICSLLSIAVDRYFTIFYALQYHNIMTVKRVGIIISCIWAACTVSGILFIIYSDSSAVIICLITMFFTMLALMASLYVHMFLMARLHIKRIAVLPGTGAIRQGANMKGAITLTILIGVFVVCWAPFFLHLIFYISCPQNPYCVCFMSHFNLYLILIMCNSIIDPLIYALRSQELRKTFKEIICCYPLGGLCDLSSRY
molecule,measurement,setting,value
thrombin (enzyme),"EC50, aggregation of murine platelets by thrombin",[1],0.6 nM
same,loss of potency against wild type PAR1 (InsP),[2],17 fold
B1,"EC50, activating phase (adenylate cyclase)",[3],~150 nM
same,"IC50, inhibitory phase (adenylate cyclase)",[3],~10 µM
same,adenylate cyclase activity relative to alpha-MSH,[3],40%
B2,"Agonist EC50 (activating phase, InsP formation)",[4],2.5 µM
same,Agonist Efficacy (% of full response to extracellular agonist),[4],11%
same,"Agonist IC50 (inhibitory phase, InsP formation)",[4],80 µM
same,"Antagonist IC50 (InsP formation, against 0.1 nM thrombin)",[4],> 50 µM
B3,"Antagonist IC50 (InsP formation, against 1 µM …)",[5],2 µM
B4,"Agonist EC50 (activating phase, InsP formation)",[5],0.1 µM
same,Agonist Efficacy (% of full response to extracellular agonist),[5],15%
same,"Agonist IC50 (inhibitory phase, InsP formation)",[5],0.5 µM
same,"Antagonist IC50 (InsP formation, against 1 µM …)",[5],3 µM
B5,"Agonist EC50 (activating phase, InsP formation)",[6],0.2 µM
same,Agonist Efficacy (% of full response to 300 nM CCK-8),[6],< 10%
same,"Agonist IC50 (inhibitory phase, InsP formation)",[6],2 µM
B6,"Agonist EC50 (activating phase, InsP formation)",[7],1.5 µM
same,Agonist Efficacy (% of full response to 300 nM CCK-8),[7],12%
same,"Agonist IC50 (inhibitory phase, InsP formation)",[7],10 µM
B7,"Agonist EC50 (activating phase, InsP formation)",[4],0.7 µM
same,"Agonist IC50 (inhibitory phase, InsP formation)",[4],32 µM
Palmitoyl-KKSRALF-NH2 [P1pal-7 (Pal-KKSRALF)],"Antagonist IC50 (InsP formation, against 0.1 nM thrombin)",[4],1.2 µM
B8,"Antagonist IC50 (InsP formation, against 0.1 nM thrombin)",[4],5 µM
